Key:
[1] = molecular target: fused FliS−FliC^C construct (FliC^C fused to the C terminus of FliS) (UniProt P06179); assay: ITC; settings: read off a plot
[2] = molecular target: cytoplasmic domain of Salmonella enterica serovar Typhimurium FlhA (FlhA^C) (Salmonella enterica serovar Typhimurium ST313) (UniProt P40729); assay: ITC; FlhA^C and variants (0.1–0.2 mM) in the cell, FliT-FliD, FliS-FliC and variants (1.0–2.0 mM) in the syringe; 25 °C; 50 mM NaPi pH 6.8, 300 mM NaCl, 0.05% NaN3; one-site binding model
[3] = molecular target: cytoplasmic domain of Salmonella enterica serovar Typhimurium FlhA (FlhA^C) (UniProt P40729); assay: ITC; settings: read off a plot

| Substance | Kd [2] [µM] | ratio to parent [3] [fold] | other results |
| --- | --- | --- | --- |
| cytoplasmic domain of Salmonella enterica serovar Typhimurium FlhA (FlhA^C) (from UniProt P40729) L476A |  |  | ratio to parent [1]: 8 fold |
| fused FliS−FliC^C construct (FliC^C fused to the C terminus of FliS) (from UniProt P06179 454-495) | 10 |  |  |
| fused FliT−FliD^C construct (FliD^C fused to the N terminus of FliT) (from UniProt P16328) | 20 |  |  |
| fused FliT−FliD^C construct (FliD^C fused to the N terminus of FliT) (from UniProt P16328) I93D |  | 3.3 |  |
| fused FliT−FliD^C construct (FliD^C fused to the N terminus of FliT) (from UniProt P16328) R98D |  | 4.5 |  |

Source: paper PMC5932034
